Literature values as cited in paper PMC3670934.

Tests used:
CCL24 (Homo sapiens) = CCL24 (Homo sapiens) (UniProt O00175)
CCL11 (Homo sapiens) = CCL11 (Homo sapiens) (UniProt P51671)
CCL26 (Homo sapiens) = CCL26 (Homo sapiens) (UniProt Q9Y258)
CCL26 (Homo sapiens), sequence (Q9Y258 24-94): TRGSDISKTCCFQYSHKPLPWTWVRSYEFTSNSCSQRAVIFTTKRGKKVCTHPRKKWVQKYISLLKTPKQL

CCR3, sequence (P51677 whole entry): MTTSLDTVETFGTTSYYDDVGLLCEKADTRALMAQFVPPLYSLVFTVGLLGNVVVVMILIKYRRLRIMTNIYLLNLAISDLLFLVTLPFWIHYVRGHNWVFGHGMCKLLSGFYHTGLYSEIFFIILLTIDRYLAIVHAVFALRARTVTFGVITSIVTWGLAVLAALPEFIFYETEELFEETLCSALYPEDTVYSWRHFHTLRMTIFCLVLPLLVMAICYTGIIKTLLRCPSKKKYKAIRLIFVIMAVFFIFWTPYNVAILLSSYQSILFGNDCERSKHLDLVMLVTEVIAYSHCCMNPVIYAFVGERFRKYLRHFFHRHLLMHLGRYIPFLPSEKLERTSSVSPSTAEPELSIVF
CCL11 (Homo sapiens), sequence (P51671 24-97): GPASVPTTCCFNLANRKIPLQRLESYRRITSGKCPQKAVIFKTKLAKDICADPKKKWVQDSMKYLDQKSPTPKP
CCL24 (Homo sapiens), sequence (O00175 27-119): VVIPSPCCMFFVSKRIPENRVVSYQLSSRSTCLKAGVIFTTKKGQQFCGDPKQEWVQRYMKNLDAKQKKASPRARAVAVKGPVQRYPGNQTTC

CCR3 (from UniProt P51677)
Kd (CCL24 (Homo sapiens)): 0.6 nM | Kd (CCL11 (Homo sapiens)): 0.52 nM | Kd (CCL26 (Homo sapiens)): 0.9 nM
